Experimental data from PMC7793589 (Science Advances, 2021).

How the values were obtained:
[1] = biological target: plasma kallikrein (human)
SAXS = biological target: the molecule itself; test: SAXS

Row | IC50 of ITIH4 on cleavage of HMWK by plasma kallikrein in Ca2+/Mg2+, SDS-PAGE [1] [nM] | Molecule | stoichiometry N (SAXS)
1 | 90 | recombinant ITIH4 (ITIH4 WT) (from UniProt Q14624 29-930) (natural protein) | 
2 |  | recombinant ITIH4 (ITIH4 WT) (natural protein, human, UniProt Q14624 29-930, looked up) EKNGIDIYSLTVDSRVSSRFAHTVVTSRVVNRANTVQEATFQMELPKKAFITNFSMIIDGMTYPGIIKEKAEAQAQYSAAVAKGKSAGLVKATGRNMEQFQVSVSVAPNAKITFELVYEELLKRRLGVYELLLKVRPQQLVKHLQMDIHIFEPQGISFLETESTFMTNQLVDALTTWQNKTKAHIRFKPTLSQQQKSPEQQETVLDGNLIIRYDVDRAISGGSIQIENGYFVHYFAPEGLTTMPKNVVFVIDKSGSMSGRKIQQTREALIKILDDLSPRDQFNLIVFSTEATQWRPSLVPASAENVNKARSFAAGIQALGGTNINDAMLMAVQLLDSSNQEERLPEGSVSLIILLTDGDPTVGETNPRSIQNNVREAVSGRYSLFCLGFGFDVSYAFLEKLALDNGGLARRIHEDSDSALQLQDFYQEVANPLLTAVTFEYPSNAVEEVTQNNFRLLFKGSEMVVAGKLQDRGPDVLTATVSGKLPTQNITFQTESSVAEQEAEFQSPKYIFHNFMERLWAYLTIQQLLEQTVSASDADQQALRNQALNLSLAYSFVTPLTSMVVTKPDDQEQSQVAEKPMEGESRNRNVHSGSTFFKYYLQGAKIPKPEASFSPRRGWNRQAGAAGSRMNFRPGVLSSRQLGLPGPPDVPDHAAYHPFRRLAILPASAPPATSNPDPAVSRVMNMKIEETTMTTQTPAPIQAPSAILPLPGQSVERLCVDPRHRQGPVNLLSDPEQGVEVTGQYEREKAGFSWIEVTFKNPLVWVHASPEHVVVTRNRRSSAYKWKETLFSVMPGLKMTMDKTGLLLLSDPDKVTIGLLFWDGRGEGLRLLLRDTDRFSSHVGGTLGQFYQEVLWGSPAASDDGRRTLRVQGNDHSATRERRLDYQEGPPGVEISCWSVEL | 2
